Test results as given in article PMC1226315 (Nucleic Acids Research, 2005).

Target: human wild-type Cdk2 GST fusion protein (human, UniProt P24941 1-298)
Experiment: pull-down

- binding result: binds
B1: Recombinant human wild-type DNA polymerase λ, His-tagged (enzyme)
chain: MDPRGILKAFPKRQKIHADASSKVLAKIPRREEGEEAEEWLSSLRAHVVRTGIGRARAELFEKQIVQHGGQLCPAQGPGVTHIVVDEGMDYERALRLLRLPQLPPGAQLVKSAWLSLCLQERRLVDVAGFSIFIPSRYLDHPQPSKAEQDASIPPGTHEALLQTALSPPPPPTRPVSPPQKAKEAPNTQAQPISDDEASDGEETQVSAADLEALISGHYPTSLEGDCEPSPAPAVLDKWVCAQPSSQKATNHNLHITEKLEVLAKAYSVQGDKWRALGYAKAINALKSFHKPVTSYQEACSIPGIGKRMAEKIIEILESGHLRKLDHISESVPVLELFSNIWGAGTKTAQMWYQQGFRSLEDIRSQASLTTQQAIGLKHYSDFLERMPREEATEIEQTVQKAAQAFNSGLLCVACGSYRRGKATCGDVDVLITHPDGRSHRGIFSRLLDSLRQEGFLTDDLVSQEENGQQQKYLGVCRLPGPGRRHRRLDIIVVPYSEFACALLYFTGSAHFNRSMRALAKTKGMSLSEHALSTAVVRNTHGCKVGPGRVLPTPTEKDVFRLLGLPYREPAERDW
